Source: the supplement of paper PMC9112550, “Optimization of the antimicrobial peptide Bac7 by deep mutational scanning” (BMC Biology, 2022)

Test system: Escherichia coli TOP10
Assay: shrunken log2 fold change of peptide-encoding DNA abundance (4.5 h post-induction vs induction); higher = less antimicrobial activity (less host growth inhibition)
Details: time post-induction: 4.5 h; library: site-saturation at positions 5, 18, 19, 20
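Note: peptides expressed intracellularly from a pBAD plasmid library in pooled LB shake-flask culture, induced with 0.3% L-arabinose, DNA abundance read by NGS, three biological replicates, DESeq2 with apeglm shrinkage.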

Row | Sequence | shrunken log2 fold change
1 | RRIRCRPPRLPRPRPRPGCNPRP | -0.425
2 | RRIRHRPPRLPRPRPRPSACPRP | -0.0435
3 | RRIRNRPPRLPRPRPRPIYTPRP | -0.288
4 | RRIRSRPPRLPRPRPRPMGDPRP | 0.00987
5 | RRIRRRPPRLPRPRPRPNGDPRP | 0.241
6 | RRIRMRPPRLPRPRPRPPQNPRP | 1.13
7 | RRIRCRPPRLPRPRPRPYYQPRP | -1.14
8 | RRIRFRPPRLPRPRPRPFELPRP | -0.0457
9 | RRIRPRPPRLPRPRPRPIPHPRP | -0.163
10 | RRIRERPPRLPRPRPRPANFPRP | -0.163
11 | RRIRTRPPRLPRPRPRPEDWPRP | 0.386
12 | RRIRHRPPRLPRPRPRPPDWPRP | 0.536
13 | RRIRFRPPRLPRPRPRPMYRPRP | -0.29
14 | RRIRHRPPRLPRPRPRPQHIPRP | -0.595
15 | RRIRHRPPRLPRPRPRPAIHPRP | -0.303
16 | RRIRKRPPRLPRPRPRPLNTPRP | 0.143
17 | RRIRFRPPRLPRPRPRPNHHPRP | -1.02
18 | RRIRMRPPRLPRPRPRPEMGPRP | 2.44
19 | RRIRDRPPRLPRPRPRPERVPRP | 0.388
20 | RRIRIRPPRLPRPRPRPDRWPRP | 0.0549

Row | Sequence | shrunken log2 fold change
21 | RRIRRRPPRLPRPRPRPDWCPRP | 0.201
22 | RRIRKRPPRLPRPRPRPHWLPRP | 0.148
23 | RRIRMRPPRLPRPRPRPMNSPRP | 0.0624
24 | RRIRDRPPRLPRPRPRPNTCPRP | -0.0241
25 | RRIRYRPPRLPRPRPRPAYFPRP | -0.782
26 | RRIRLRPPRLPRPRPRPTIFPRP | 0.205
27 | RRIRCRPPRLPRPRPRPPSDPRP | 0.213
28 | RRIRWRPPRLPRPRPRPTHMPRP | 0.206
29 | RRIRGRPPRLPRPRPRPYVSPRP | -0.203
30 | RRIRGRPPRLPRPRPRPMSDPRP | 0.34
31 | RRIRGRPPRLPRPRPRPIGAPRP | 0.251
32 | RRIRNRPPRLPRPRPRPQQVPRP | -0.0087
33 | RRIRHRPPRLPRPRPRPTTGPRP | -0.117
34 | RRIRYRPPRLPRPRPRPYRAPRP | -0.0919
35 | RRIRSRPPRLPRPRPRPYWYPRP | -1.45
36 | RRIRERPPRLPRPRPRPSVWPRP | 0.0602
37 | RRIRMRPPRLPRPRPRPEILPRP | 0.121
38 | RRIRWRPPRLPRPRPRPPPAPRP | 1.2
39 | RRIRGRPPRLPRPRPRPLGGPRP | 0.615
40 | RRIRSRPPRLPRPRPRPYWCPRP | -0.161

Row | Sequence | shrunken log2 fold change
41 | RRIRVRPPRLPRPRPRPQLNPRP | -0.292
42 | RRIRWRPPRLPRPRPRPLHEPRP | 0.148
43 | RRIRIRPPRLPRPRPRPWYCPRP | -0.0341
44 | RRIRARPPRLPRPRPRPQHKPRP | 0.292
45 | RRIRGRPPRLPRPRPRPMQPPRP | 1.77
46 | RRIRHRPPRLPRPRPRPKYHPRP | -0.773
47 | RRIRQRPPRLPRPRPRPFPLPRP | -0.0585
48 | RRIRTRPPRLPRPRPRPKPNPRP | 0.186
49 | RRIRFRPPRLPRPRPRPYTTPRP | -0.333
50 | RRIRQRPPRLPRPRPRPEPNPRP | -0.0098
51 | RRIRCRPPRLPRPRPRPKPMPRP | -0.00253
52 | RRIRYRPPRLPRPRPRPRIQPRP | -0.203
53 | RRIRNRPPRLPRPRPRPFNNPRP | -0.193
54 | RRIRLRPPRLPRPRPRPVHSPRP | 0.00898
55 | RRIRERPPRLPRPRPRPWRMPRP | -0.13
56 | RRIRDRPPRLPRPRPRPPWEPRP | 0.0453
57 | RRIRTRPPRLPRPRPRPYDRPRP | -0.221
58 | RRIRTRPPRLPRPRPRPDVNPRP | 0.21
59 | RRIRHRPPRLPRPRPRPPECPRP | 0.331
60 | RRIRSRPPRLPRPRPRPVAPPRP | 0.397
